Measured values: paper PMC2034485

Legend:
GST-SAP (Homo sapiens) = GST-SAP (Homo sapiens) (UniProt Q9NS91); assay: SPR
[1] = molecular target: human Rad18 (Rad18 1–495) (human) (UniProt Q9NS91); assay: SEC-MALS

Sequence of GST-SAP (Homo sapiens) (Q9NS91 whole entry): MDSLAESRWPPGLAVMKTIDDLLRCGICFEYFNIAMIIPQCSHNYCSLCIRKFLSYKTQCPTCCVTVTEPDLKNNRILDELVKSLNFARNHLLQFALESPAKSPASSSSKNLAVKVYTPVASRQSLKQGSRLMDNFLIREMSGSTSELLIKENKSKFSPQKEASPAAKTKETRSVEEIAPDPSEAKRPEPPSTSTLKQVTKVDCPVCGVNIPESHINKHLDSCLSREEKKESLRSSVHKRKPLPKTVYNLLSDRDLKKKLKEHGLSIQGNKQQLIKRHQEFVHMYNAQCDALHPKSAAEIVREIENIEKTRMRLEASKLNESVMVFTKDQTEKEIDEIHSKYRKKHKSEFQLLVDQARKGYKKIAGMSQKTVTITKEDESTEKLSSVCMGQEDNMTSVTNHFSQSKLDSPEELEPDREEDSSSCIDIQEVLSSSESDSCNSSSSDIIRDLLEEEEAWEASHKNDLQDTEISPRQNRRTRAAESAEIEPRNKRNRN
Sequence of human Rad18 (Rad18 1–495) (Q9NS91 whole entry): as above

Row | Substance | Kd (GST-SAP (Homo sapiens)) [µM] | stoichiometry N [1]
1 | 40-mer dsDNA | 5.6 | 
2 | TTTTTTTTTTTTTTTTTTTTTTTTTTTTTTTTTTTTTTTT [40T] | 1.1 | 
3 | human Rad18 (Rad18 1–495) (from UniProt Q9NS91 1-495) (natural protein) |  | 2
